Laboratory results published in US6942981.
Ends that are not written are not given here. * marks the point of attachment. Biotin = O=C1N[C@H]2[C@H](CS[C@H]2CCCCC(=O)*)N1

Legend:
[1] = molecular target: T1, GST-LIMK2 PDZ domain fusion protein (human, UniProt P53671 147-237); test: A/G assays
T1 construct: also called human LIM domain kinase 2; not shown: glutathione S-transferase (GST) encoded by pGEX-3X
T1 sequence: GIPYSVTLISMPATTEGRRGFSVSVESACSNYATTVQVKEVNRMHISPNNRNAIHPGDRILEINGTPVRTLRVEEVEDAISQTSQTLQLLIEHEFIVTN

[2] = molecular target: T2, GST-MPP2 PDZ domain fusion protein; test: A/G assays
T2 construct: also called maguk p55 subfamily member 2 (DLG2); MMP2; not shown: glutathione S-transferase (GST) encoded by pGEX-3X
T2 chain: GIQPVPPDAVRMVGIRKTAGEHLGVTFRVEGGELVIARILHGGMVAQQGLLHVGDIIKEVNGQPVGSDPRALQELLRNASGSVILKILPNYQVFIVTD

[3] = molecular target: T3, GST-DVL1 PDZ domain fusion protein (human); test: A/G assays
T3 construct: also called human dishevelled segment polarity protein homolog; not shown: glutathione S-transferase (GST) encoded by pGEX-3X
T3 chain: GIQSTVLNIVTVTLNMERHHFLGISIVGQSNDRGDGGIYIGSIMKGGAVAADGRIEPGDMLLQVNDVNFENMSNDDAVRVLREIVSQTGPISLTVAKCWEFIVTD

[4] = molecular target: T4, GST-MINT3 PDZ domain fusion protein (human); test: A/G assays
T4 construct: also called human MINT3; not shown: glutathione S-transferase (GST) encoded by pGEX-3X
T4 chain: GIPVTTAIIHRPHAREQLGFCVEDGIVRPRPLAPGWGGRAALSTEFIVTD

[5] = molecular target: T5, GST-TAX2 PDZ domain fusion protein (human, UniProt O14908 129-216); test: A/G assays
T5 construct: not shown: glutathione S-transferase (GST) encoded by pGEX-3X
T5 chain: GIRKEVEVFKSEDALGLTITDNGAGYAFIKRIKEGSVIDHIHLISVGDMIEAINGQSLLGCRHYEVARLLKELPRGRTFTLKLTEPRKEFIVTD

[6] = molecular target: T6, GST-NeDLG PDZ domains 1-2 fusion protein (Mus musculus (Mouse), UniProt P70175 147-332); test: A/G assays
T6 construct: also called NeDLG1; not shown: glutathione S-transferase (GST) encoded by pGEX-3X
T6 chain: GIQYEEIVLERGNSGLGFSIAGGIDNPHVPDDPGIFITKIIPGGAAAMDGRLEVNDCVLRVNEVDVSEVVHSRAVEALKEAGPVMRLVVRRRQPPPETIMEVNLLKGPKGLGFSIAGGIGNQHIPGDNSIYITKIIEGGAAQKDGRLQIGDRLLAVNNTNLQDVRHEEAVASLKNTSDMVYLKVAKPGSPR

[7] = molecular target: T7, GST-SYN1a (alpha1-syntrophin) PDZ domain fusion protein (Homo sapiens (Human), UniProt Q13424 84-179); test: A/G assays
T7 construct: also called SYN 1 α; not shown: glutathione S-transferase (GST) encoded by pGEX-3X
T7 sequence: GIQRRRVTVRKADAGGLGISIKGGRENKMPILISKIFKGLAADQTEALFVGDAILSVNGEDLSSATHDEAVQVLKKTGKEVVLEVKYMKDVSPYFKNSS

[8] = molecular target: T6, GST-NeDLG PDZ domains 1-2 fusion protein; test: A assay
[9] = molecular target: T6, GST-NeDLG PDZ domains 1-2 fusion protein; test: G assay

| Binder | binding result [1] | binding result [2] | binding result [3] | binding result [4] | binding result [5] | binding result [6] | binding result [7] | binding result [8] | binding result [9] |
| --- | --- | --- | --- | --- | --- | --- | --- | --- | --- |
| Biotin-YSATYSELEDPGEMSPPIDL (also called FceRlb; FcεRβI) [FceRIb C-terminal peptide AA25L] | no binding | no binding | no binding | no binding | no binding | no binding | no binding |  |  |
| Biotin-EVICYIEKPGVETLEDSVF [CDW125 (IL5R) C-terminal peptide AA28L] | no binding | no binding | no binding | no binding | no binding | no binding | no binding |  |  |
| Biotin-SSKSKSSEESQTFFGLYKL (not fully specified) [FasLigand C-terminal peptide AA23L-M] | no binding | no binding | no binding | no binding | no binding | no binding | no binding |  |  |
| Biotin-SPQPDSTDNDDYDDISAA [CD6 C-terminal peptide AA6L] | no binding | no binding | no binding | no binding | no binding | no binding | no binding |  |  |
| Biotin-TSGTGHNQTRALRASESGI [CD97 (CD55L) C-terminal peptide AA14L] | no binding | no binding | no binding | no binding | no binding | no binding | no binding |  |  |
| Biotin-CAISGTSSDRGYGSPRYAEV [CLASP-4 C-terminal peptide AA3L-V] | no binding | no binding | no binding | no binding | no binding |  | no binding |  |  |
| Biotin-ENLAPVTTFGKTNGYIA [CD148 (DEP-1) C-terminal peptide AA19L (ending GYIA)] | no binding | no binding | no binding | no binding | no binding | no binding | no binding |  |  |
| Biotin-SSSQSLESDGSYQKPSYIL [CD62E C-terminal peptide AA48L] | no binding | no binding | no binding | no binding | no binding | no binding | no binding |  |  |
| Biotin-LERVSSTSPSTGEHELSAGF [CC CKR-1R C-terminal peptide AA41L] | no binding | no binding | no binding | no binding | no binding | no binding | no binding |  |  |
| Biotin-PSWRRSSLSESENATSLTTF [BLR-1 C-terminal peptide AA45L] | no binding | no binding | no binding | no binding | no binding | no binding | no binding |  |  |
| Biotin-HKAEIHAQPSDKERLTSDA [CD49F (Aform, alpha6) C-terminal peptide AA12L] | no binding | no binding | no binding | no binding | no binding | no binding | no binding |  |  |
| Biotin-GKGKSIGRAPEASLQDKEGA [CC CKR-2 C-terminal peptide AA42L] | no binding | no binding | no binding | no binding | no binding | no binding | no binding |  |  |
| Biotin-DLGNMEENKKLEENNHKTEA [CD166 (CD6L) C-terminal peptide AA20L] | no binding | no binding | no binding | no binding | no binding | no binding | no binding |  |  |
| Biotin-LERTSSVSPSTAEPELSIVF [CC CKR-3 C-terminal peptide AA43L] | no binding | no binding | no binding | no binding | no binding | no binding | no binding |  |  |
| Biotin-SMQPDNSSDSDYDLHGAQRL [CD5 C-terminal peptide AA49L] | no binding | no binding | no binding | no binding | no binding | no binding | no binding |  |  |
| Biotin-VTSPNKHLGLVTPHKTELV [CD83 C-terminal peptide AA47L] | no binding | no binding | no binding | no binding | no binding |  | no binding | binds |  |
| Biotin-SVFSIPTLWSPWPPSSSSQL (also called CD3-η) [CD3n C-terminal peptide AA4L] | no binding | no binding | no binding | no binding | no binding | no binding | no binding |  |  |
| Biotin-PYGTAMEKAQLKPPATSDA [CD49E (alpha-4) C-terminal peptide AA11L] | no binding | no binding | no binding | no binding | no binding | no binding | no binding |  |  |
| Biotin-DTPSSSYTQSTMDHDLHDAL [CC CKR-4 C-terminal peptide AA44L] | no binding | no binding | no binding | no binding | no binding | no binding | no binding |  |  |
| Biotin-KKGTYLTDETHREVKFTSL [CD46 (form 1) C-terminal peptide AA10L] | no binding | no binding | no binding | no binding | no binding |  | no binding |  | binds |
